Results from publication PMC6538746, “Rice transcription factor OsMADS57 regulates plant height by modulating gibberellin catabolism”.

B1: EUI1 promoter CArG probe (dsDNA)
DNA 1: GCCTTTCCCTTTGTTACTGTTGCATATAAAAGATCATCAATGT
DNA 2: ACATTGATGATCTTTTATATGCAACAGTAACAAAGGGAAAGGC
B2: OsGA2ox3 promoter CArG probe (dsDNA)
DNA 1: TAGCACGAGGGAAAACCCTTTAAAAAGACAGACAAGGCAGACG
DNA 2: CGTCTGCCTTGTCTGTCTTTTTAAAGGGTTTTCCCTCGTGCTA

Target: OsMADS57 (Oryza sativa, UniProt Q6Z6W2 1-241)
Test: EMSA; competed by unlabeled probe; LightShift Chemiluminescent EMSA Kit (Thermo); buffer, salt, pH and temperature not stated
Conditions: protein: recombinant; tags: His (pET32a(+) vector-encoded tags); chain copies: 2; label: biotin 3' end; blunt

Sequence of OsMADS57 (Q6Z6W2 whole entry): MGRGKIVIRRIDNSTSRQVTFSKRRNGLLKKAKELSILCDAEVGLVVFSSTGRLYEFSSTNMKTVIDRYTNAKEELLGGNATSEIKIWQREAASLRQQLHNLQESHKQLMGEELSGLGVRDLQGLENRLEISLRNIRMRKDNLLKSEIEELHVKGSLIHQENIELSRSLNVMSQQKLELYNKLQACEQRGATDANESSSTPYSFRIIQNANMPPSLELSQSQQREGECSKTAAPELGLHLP

Row | Binder | binding result
1 | B1 | binds
2 | B2 | binds
